Experimental data as given in the MegaScale stability set (Tsuboyama et al. 2023).

B1: EEHEE_rd4_0469 (parent)
chain: ITIHVNGVTYHFDNPEEAEKFAQKMAKTYQLKMEIHNGEFHME

Variants of: B1
Assay: folding stability dG (cDNA display proteolysis); higher = more stable
Conditions: PBS, room temperature

Point of comparison: ITIHVNGVTYHFDNPEEAEKFAQKMAKTYQLKVEIHNGEFHME [M33V], “folding stability dG” value 1.46 kcal/mol. Against it:
- ITIHVNGVTYHFDNPEEAEKFAQKMAKTYQLKYEIHNGEFHME [M33Y] — lower, 1.11 kcal/mol
- ITIHVNGVTYHFDNPEEAEKFAQKMAKTYQLKNEIHNGEFHME [M33N] — lower, 0.297 kcal/mol
- ITIHVNGVTYHFDNPEEAEKFAQKMAKTYQLKCEIHNGEFHME [M33C] — higher, 2.62 kcal/mol
- ITIHVNGVTYHFDNPEEAEKFAQKMAKTYQLKHEIHNGEFHME [M33H] — lower, 0.293 kcal/mol
- ITIHVNGVTYHFDNPEEAEKFAQKMAKTYQLKEEIHNGEFHME [M33E] — lower, 0.678 kcal/mol
- ITIHVNGVTYHFDNPEEAEKFAQKMAKTYQLKWEIHNGEFHME [M33W] — lower, 1.36 kcal/mol
- ITIHVNGVTYHFDNPEEAEKFAQKMAKTYQLKLEIHNGEFHME [M33L] — lower, 1.43 kcal/mol
- ITIHVNGVTYHFDNPEEAEKFAQKMAKTYQLKAEIHNGEFHME [M33A] — lower, 0.574 kcal/mol
- ITIHVNGVTYHFDNPEEAEKFAQKMAKTYQLKGEIHNGEFHME [M33G] — lower, 0.452 kcal/mol
- ITIHVNGVTYHFDNPEEAEKFAQKMAKTYQLKIEIHNGEFHME [M33I] — higher, 1.6 kcal/mol
- ITIHVNGVTYHFDNPEEAEKFAQKMAKTYQLKTEIHNGEFHME [M33T] — lower, 0.664 kcal/mol
- ITIHVNGVTYHFDNPEEAEKFAQKMAKTYQLKPEIHNGEFHME [M33P] — lower, 0.368 kcal/mol
- ITIHVNGVTYHFDNPEEAEKFAQKMAKTYQLKFEIHNGEFHME [M33F] — lower, 1.18 kcal/mol
- ITIHVNGVTYHFDNPEEAEKFAQKMAKTYQLKKEIHNGEFHME [M33K] — lower, -0.407 kcal/mol
- ITIHVNGVTYHFDNPEEAEKFAQKMAKTYQLKDEIHNGEFHME [M33D] — lower, 0.558 kcal/mol
- ITIHVNGVTYHFDNPEEAEKFAQKMAKTYQLKQEIHNGEFHME [M33Q] — lower, 0.352 kcal/mol
- ITIHVNGVTYHFDNPEEAEKFAQKMAKTYQLKSEIHNGEFHME [M33S] — lower, 0.431 kcal/mol
- ITIHVNGVTYHFDNPEEAEKFAQKMAKTYQLKMSIHNGEFHME [E34S] — lower, 1.28 kcal/mol
- ITIHVNGVTYHFDNPEEAEKFAQKMAKTYQLKMWIHNGEFHME [E34W] — higher, 1.54 kcal/mol
- ITIHVNGVTYHFDNPEEAEKFAQKMAKTYQLKMVIHNGEFHME [E34V] — higher, 1.91 kcal/mol
- ITIHVNGVTYHFDNPEEAEKFAQKMAKTYQLKMRIHNGEFHME [E34R] — lower, 1.22 kcal/mol
- ITIHVNGVTYHFDNPEEAEKFAQKMAKTYQLKMAIHNGEFHME [E34A] — lower, 1.03 kcal/mol
- ITIHVNGVTYHFDNPEEAEKFAQKMAKTYQLKMDIHNGEFHME [E34D] — lower, 0.739 kcal/mol
- ITIHVNGVTYHFDNPEEAEKFAQKMAKTYQLKMTIHNGEFHME [E34T] — higher, 1.51 kcal/mol
- ITIHVNGVTYHFDNPEEAEKFAQKMAKTYQLKMHIHNGEFHME [E34H] — lower, 1.41 kcal/mol
- ITIHVNGVTYHFDNPEEAEKFAQKMAKTYQLKMIIHNGEFHME [E34I] — higher, 1.67 kcal/mol
- ITIHVNGVTYHFDNPEEAEKFAQKMAKTYQLKMQIHNGEFHME [E34Q] — lower, 0.991 kcal/mol
- ITIHVNGVTYHFDNPEEAEKFAQKMAKTYQLKMMIHNGEFHME [E34M] — lower, 1.33 kcal/mol
- ITIHVNGVTYHFDNPEEAEKFAQKMAKTYQLKMFIHNGEFHME [E34F] — higher, 1.82 kcal/mol
- ITIHVNGVTYHFDNPEEAEKFAQKMAKTYQLKMLIHNGEFHME [E34L] — lower, 1.26 kcal/mol
- ITIHVNGVTYHFDNPEEAEKFAQKMAKTYQLKMCIHNGEFHME [E34C] — higher, 2.43 kcal/mol
- ITIHVNGVTYHFDNPEEAEKFAQKMAKTYQLKMYIHNGEFHME [E34Y] — higher, 1.78 kcal/mol
- ITIHVNGVTYHFDNPEEAEKFAQKMAKTYQLKMNIHNGEFHME [E34N] — lower, 1.06 kcal/mol
- ITIHVNGVTYHFDNPEEAEKFAQKMAKTYQLKMPIHNGEFHME [E34P] — lower, 0.209 kcal/mol
- ITIHVNGVTYHFDNPEEAEKFAQKMAKTYQLKMKIHNGEFHME [E34K] — lower, 1.17 kcal/mol
- ITIHVNGVTYHFDNPEEAEKFAQKMAKTYQLKMGIHNGEFHME [E34G] — lower, 0.776 kcal/mol
- ITIHVNGVTYHFDNPEEAEKFAQKMAKTYQLKMEDHNGEFHME [I35D] — lower, 0.68 kcal/mol
- ITIHVNGVTYHFDNPEEAEKFAQKMAKTYQLKMEEHNGEFHME [I35E] — lower, 0.844 kcal/mol
- ITIHVNGVTYHFDNPEEAEKFAQKMAKTYQLKMEAHNGEFHME [I35A] — lower, 0.721 kcal/mol
- ITIHVNGVTYHFDNPEEAEKFAQKMAKTYQLKMEFHNGEFHME [I35F] — lower, 1.21 kcal/mol
- ITIHVNGVTYHFDNPEEAEKFAQKMAKTYQLVMEIHNGEFHME [K32V] — higher, 1.62 kcal/mol
- ITIHVNGVTYHFDNPEEAEKFAQKMAKTYQLNMEIHNGEFHME [K32N] — lower, 1.28 kcal/mol
- ITIHVNGVTYHFDNPEEAEKFAQKMAKTYQLSMEIHNGEFHME [K32S] — lower, 1.39 kcal/mol
- ITIHVNGVTYHFDNPEEAEKFAQKMAKTYQLIMEIHNGEFHME [K32I] — higher, 1.66 kcal/mol
- ITIHVNGVTYHFDNPEEAEKFAQKMAKTYQLYMEIHNGEFHME [K32Y] — higher, 1.58 kcal/mol
- ITIHVNGVTYHFDNPEEAEKFAQKMAKTYQLLMEIHNGEFHME [K32L] — higher, 1.52 kcal/mol
- ITIHVNGVTYHFDNPEEAEKFAQKMAKTYQLDMEIHNGEFHME [K32D] — lower, 1.31 kcal/mol
- ITIHVNGVTYHFDNPEEAEKFAQKMAKTYQLHMEIHNGEFHME [K32H] — higher, 1.48 kcal/mol
- ITIHVNGVTYHFDNPEEAEKFAQKMAKTYQLRMEIHNGEFHME [K32R] — lower, 0.848 kcal/mol
- ITIHVNGVTYHFDNPEEAEKFAQKMAKTYQLMMEIHNGEFHME [K32M] — lower, 1.44 kcal/mol
- ITIHVNGVTYHFDNPEEAEKFAQKMAKTYQLWMEIHNGEFHME [K32W] — higher, 1.54 kcal/mol
- ITIHVNGVTYHFDNPEEAEKFAQKMAKTYQLEMEIHNGEFHME [K32E] — higher, 1.48 kcal/mol
- ITIHVNGVTYHFDNPEEAEKFAQKMAKTYQLFMEIHNGEFHME [K32F] — lower, 1.44 kcal/mol
- ITIHVNGVTYHFDNPEEAEKFAQKMAKTYQLGMEIHNGEFHME [K32G] — lower, 1.13 kcal/mol
- ITIHVNGVTYHFDNPEEAEKFAQKMAKTYQLPMEIHNGEFHME [K32P] — lower, 1.09 kcal/mol
- ITIHVNGVTYHFDNPEEAEKFAQKMAKTYQLAMEIHNGEFHME [K32A] — lower, 1.37 kcal/mol
- ITIHVNGVTYHFDNPEEAEKFAQKMAKTYQLTMEIHNGEFHME [K32T] — higher, 1.51 kcal/mol
- ITIHVNGVTYHFDNPEEAEKFAQKMAKTYQLQMEIHNGEFHME [K32Q] — lower, 1.45 kcal/mol
